{"source": "patent US20160136234A1", "assay_in_all_cases": "cell-based or functional assay", "key": {"[1]": {"target": "ASK1 (h) (human) (UniProt Q99683)"}, "[2]": {"target": "CDK5/p25 (h) (human) (UniProt Q00535)"}, "[3]": {"target": "T1, DCAMKL2 (h) (human) (UniProt Q8N568)", "T1 sequence (looked up)": "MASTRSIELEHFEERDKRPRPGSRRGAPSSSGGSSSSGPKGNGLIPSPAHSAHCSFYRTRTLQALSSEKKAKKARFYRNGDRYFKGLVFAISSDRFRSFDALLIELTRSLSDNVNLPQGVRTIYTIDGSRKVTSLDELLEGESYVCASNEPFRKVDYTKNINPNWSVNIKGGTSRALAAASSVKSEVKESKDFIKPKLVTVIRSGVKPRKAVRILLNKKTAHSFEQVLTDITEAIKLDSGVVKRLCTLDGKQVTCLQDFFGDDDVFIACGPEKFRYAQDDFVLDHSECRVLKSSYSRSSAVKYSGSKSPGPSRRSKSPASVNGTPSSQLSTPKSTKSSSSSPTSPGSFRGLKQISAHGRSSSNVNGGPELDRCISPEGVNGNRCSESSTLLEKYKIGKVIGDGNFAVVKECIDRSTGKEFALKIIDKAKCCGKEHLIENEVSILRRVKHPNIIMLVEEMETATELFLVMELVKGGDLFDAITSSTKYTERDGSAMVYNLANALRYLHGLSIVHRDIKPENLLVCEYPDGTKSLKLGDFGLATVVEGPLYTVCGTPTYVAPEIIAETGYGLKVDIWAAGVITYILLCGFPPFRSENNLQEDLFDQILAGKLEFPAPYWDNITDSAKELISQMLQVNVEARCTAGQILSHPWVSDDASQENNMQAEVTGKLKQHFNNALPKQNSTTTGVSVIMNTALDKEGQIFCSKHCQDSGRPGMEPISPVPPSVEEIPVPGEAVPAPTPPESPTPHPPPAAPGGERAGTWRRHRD"}, "[4]": {"target": "EphA4 (h) (human) (UniProt P54764)", "sequence (P54764 570-986 limits assumed)": "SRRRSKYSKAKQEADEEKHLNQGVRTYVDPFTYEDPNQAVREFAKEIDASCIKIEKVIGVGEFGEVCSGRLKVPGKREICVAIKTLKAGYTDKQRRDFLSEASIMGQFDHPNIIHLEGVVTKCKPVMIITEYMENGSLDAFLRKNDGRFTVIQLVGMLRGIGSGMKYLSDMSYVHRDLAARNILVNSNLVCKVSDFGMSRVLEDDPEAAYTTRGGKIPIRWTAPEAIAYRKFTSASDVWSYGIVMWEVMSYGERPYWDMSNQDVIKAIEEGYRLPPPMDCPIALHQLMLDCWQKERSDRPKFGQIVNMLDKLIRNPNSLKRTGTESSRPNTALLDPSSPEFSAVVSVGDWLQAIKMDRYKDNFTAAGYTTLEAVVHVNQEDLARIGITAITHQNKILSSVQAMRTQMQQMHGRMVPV"}, "[5]": {"target": "FGFR4 (h) (human) (UniProt P22455)", "sequence (P22455 460-802 limits assumed)": "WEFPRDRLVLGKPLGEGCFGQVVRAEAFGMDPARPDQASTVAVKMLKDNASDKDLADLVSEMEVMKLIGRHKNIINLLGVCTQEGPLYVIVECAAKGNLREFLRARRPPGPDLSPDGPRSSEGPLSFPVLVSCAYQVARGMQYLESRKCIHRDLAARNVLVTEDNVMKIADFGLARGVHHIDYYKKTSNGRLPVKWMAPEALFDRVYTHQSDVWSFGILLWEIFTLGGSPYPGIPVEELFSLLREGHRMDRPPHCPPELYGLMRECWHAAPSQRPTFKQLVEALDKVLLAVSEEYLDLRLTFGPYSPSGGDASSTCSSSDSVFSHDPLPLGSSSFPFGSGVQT"}, "[6]": {"target": "IRAK1 (h) (human) (UniProt P51617)"}, "[7]": {"target": "MINK (h) (human) (UniProt Q8N4C8)"}, "[8]": {"target": "PTK5 (h) (human) (UniProt P42685)", "sequence (P42685 whole entry)": "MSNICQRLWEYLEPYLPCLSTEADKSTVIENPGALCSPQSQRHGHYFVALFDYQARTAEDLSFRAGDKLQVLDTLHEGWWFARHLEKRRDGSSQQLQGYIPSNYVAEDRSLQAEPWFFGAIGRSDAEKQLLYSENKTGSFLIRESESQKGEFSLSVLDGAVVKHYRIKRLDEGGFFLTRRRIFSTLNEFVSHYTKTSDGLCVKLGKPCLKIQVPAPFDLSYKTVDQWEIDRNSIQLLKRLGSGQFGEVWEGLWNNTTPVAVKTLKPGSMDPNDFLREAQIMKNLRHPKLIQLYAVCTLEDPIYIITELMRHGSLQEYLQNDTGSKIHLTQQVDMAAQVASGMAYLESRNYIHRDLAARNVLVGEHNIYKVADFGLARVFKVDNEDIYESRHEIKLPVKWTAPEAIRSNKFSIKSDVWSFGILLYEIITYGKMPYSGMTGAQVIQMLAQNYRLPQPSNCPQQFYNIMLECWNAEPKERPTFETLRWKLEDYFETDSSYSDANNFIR"}, "[9]": {"target": "T2, PrKX (h) (human) (UniProt P51817)", "T2 sequence (looked up)": "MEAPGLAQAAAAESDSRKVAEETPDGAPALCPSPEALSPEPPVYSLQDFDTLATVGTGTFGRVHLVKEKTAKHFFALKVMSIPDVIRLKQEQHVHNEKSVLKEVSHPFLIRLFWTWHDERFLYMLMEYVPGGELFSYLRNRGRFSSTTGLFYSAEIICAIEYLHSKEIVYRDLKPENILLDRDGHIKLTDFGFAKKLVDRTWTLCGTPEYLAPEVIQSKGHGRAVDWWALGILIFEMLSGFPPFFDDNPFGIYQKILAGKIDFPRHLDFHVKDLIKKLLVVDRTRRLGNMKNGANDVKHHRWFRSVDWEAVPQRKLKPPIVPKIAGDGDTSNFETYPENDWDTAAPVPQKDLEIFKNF"}, "[10]": {"target": "Src(1-530) (h) (human) (UniProt P12931)"}, "[11]": {"target": "Tie2 (h) (human) (UniProt Q02763)", "sequence (Q02763 771-1124 limits assumed)": "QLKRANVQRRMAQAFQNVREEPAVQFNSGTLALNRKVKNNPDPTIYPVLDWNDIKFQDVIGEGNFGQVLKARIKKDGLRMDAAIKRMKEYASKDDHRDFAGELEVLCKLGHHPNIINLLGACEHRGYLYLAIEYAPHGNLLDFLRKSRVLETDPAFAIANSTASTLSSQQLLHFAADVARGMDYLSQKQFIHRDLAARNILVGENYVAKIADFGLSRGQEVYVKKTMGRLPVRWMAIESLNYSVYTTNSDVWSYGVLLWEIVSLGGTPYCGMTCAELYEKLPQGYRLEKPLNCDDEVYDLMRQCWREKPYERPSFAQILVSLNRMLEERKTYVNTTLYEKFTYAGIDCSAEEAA"}}, "data": [{"substance": "MMI-0300 (peptide)", "values": [{"measurement": "% activity at 100 µM", "setting": "[1]", "value": 80, "unit": "%"}, {"measurement": "% activity at 100 µM", "setting": "[2]", "value": 89, "unit": "%"}, {"measurement": "% activity at 100 µM", "setting": "[3]", "value": 81, "unit": "%"}, {"measurement": "% activity at 100 µM", "setting": "[4]", "value": 88, "unit": "%"}, {"measurement": "% activity at 100 µM", "setting": "[5]", "value": 28, "unit": "%"}, {"measurement": "% activity at 100 µM", "setting": "[6]", "value": 95, "unit": "%"}, {"measurement": "% activity at 100 µM", "setting": "[7]", "value": 48, "unit": "%"}, {"measurement": "% activity at 100 µM", "setting": "[8]", "value": 132, "unit": "%"}, {"measurement": "% activity at 100 µM", "setting": "[9]", "value": 61, "unit": "%"}, {"measurement": "% activity at 100 µM", "setting": "[10]", "value": 23, "unit": "%"}, {"measurement": "% activity at 100 µM", "setting": "[11]", "value": 26, "unit": "%"}]}]}
